Assay results published in patent US20080286284A1.
Where “and” joins values, the source holds several entries; their conditions need not be identical. Equal entries are not always repeated. Values belong to the substance of their own block, whether it stands above or below them.

Key:
[1] = biological target: recombinant soluble PSMA (rsPSMA) (human) (UniProt Q04609); test: Biacore, rsPSMA
[2] = biological target: prostate specific membrane antigen (PSMA), full-length human (human) (UniProt Q04609); test: fraction of radiolabeled mAb bound, PSMA-3T3 cells
[3] = biological target: prostate specific membrane antigen (PSMA), full-length human (human) (UniProt Q04609); test: average over PSMA-expressing cells
[4] = biological target: prostate specific membrane antigen (PSMA), full-length human (human) (UniProt Q04609); test: cell-based or functional assay

Sequence of prostate specific membrane antigen (PSMA), full-length human (human) (Q04609 whole entry): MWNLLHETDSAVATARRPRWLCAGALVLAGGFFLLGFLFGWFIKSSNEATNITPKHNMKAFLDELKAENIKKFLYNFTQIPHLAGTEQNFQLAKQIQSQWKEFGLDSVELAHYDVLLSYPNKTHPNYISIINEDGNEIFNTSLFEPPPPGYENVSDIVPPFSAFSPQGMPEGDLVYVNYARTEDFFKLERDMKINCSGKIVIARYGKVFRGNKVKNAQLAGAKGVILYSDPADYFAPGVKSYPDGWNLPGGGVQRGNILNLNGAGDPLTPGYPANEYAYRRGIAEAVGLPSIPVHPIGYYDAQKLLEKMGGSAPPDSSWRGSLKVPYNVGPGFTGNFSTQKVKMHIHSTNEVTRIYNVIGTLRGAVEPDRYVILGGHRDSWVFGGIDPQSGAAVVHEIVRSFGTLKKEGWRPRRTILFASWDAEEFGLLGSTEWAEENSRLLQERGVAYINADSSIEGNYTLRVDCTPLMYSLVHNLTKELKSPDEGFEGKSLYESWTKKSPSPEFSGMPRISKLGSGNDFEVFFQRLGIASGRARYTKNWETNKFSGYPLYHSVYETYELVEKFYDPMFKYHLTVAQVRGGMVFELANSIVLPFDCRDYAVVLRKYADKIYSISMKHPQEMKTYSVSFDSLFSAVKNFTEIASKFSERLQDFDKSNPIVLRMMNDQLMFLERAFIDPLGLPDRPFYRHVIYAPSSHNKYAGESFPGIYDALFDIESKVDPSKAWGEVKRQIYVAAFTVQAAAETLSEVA
Sequence of recombinant soluble PSMA (rsPSMA) (human) (Q04609 44-750): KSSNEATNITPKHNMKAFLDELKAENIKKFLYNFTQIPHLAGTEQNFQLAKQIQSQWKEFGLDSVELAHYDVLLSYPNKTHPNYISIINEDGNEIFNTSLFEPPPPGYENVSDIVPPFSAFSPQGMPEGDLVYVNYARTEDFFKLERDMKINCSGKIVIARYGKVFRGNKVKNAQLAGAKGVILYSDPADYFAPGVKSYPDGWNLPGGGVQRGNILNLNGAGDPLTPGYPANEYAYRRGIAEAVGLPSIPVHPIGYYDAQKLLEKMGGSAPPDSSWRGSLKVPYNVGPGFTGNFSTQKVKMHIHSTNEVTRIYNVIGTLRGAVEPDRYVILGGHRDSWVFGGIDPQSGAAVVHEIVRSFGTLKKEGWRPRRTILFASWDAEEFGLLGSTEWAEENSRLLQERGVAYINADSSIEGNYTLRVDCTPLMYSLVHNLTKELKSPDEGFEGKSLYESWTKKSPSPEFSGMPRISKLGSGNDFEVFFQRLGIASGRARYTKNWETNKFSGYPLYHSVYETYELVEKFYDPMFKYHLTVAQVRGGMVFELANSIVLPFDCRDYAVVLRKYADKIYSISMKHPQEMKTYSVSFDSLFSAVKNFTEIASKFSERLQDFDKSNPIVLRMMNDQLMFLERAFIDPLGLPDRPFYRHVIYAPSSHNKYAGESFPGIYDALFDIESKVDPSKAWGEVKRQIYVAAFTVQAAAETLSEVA

- Kd [1]: 0.634 nM
Substance: Control (Table 6, Biacore) (antibody)

- Immunoreactivity (%) [2]: 58.5% and 54.9%
- Immunoreactivity (%) [3]: 56.7%
Substance: ^111In radiolabeled CHX-A″-DTPA mJ591 (antibody)

Substance: mAb J591 (murine) (antibody)
- LD50, immunotoxin cytotoxicity (Mab-Zap saporin secondary) on C4-2 cells [4]: 88.2 pM
- LD50, immunotoxin cytotoxicity (Mab-Zap saporin secondary) on PSMA-3T3 cells [4]: 89 pM
